Test results published in ChEMBL document CHEMBL1157388, “Recent developments in fragment-based drug discovery” (J Med Chem, 2008).

What was measured:
[1] = substrate: O=P(O)(O)Oc1ccc(-c2ccccc2)cc1
[2] = substrate: O=[N+]([O-])c1ccc(OP(=O)(O)O)cc1

B1: Receptor-type tyrosine-protein phosphatase beta (Homo sapiens), P23467 (protein)
chain: MLSHGAGLALWITLSLLQTGLAEPERCNFTLAESKASSHSVSIQWRILGSPCNFSLIYSSDTLGAALCPTFRIDNTTYGCNLQDLQAGTIYNFRIISLDEERTVVLQTDPLPPARFGVSKEKTTSTSLHVWWTPSSGKVTSYEVQLFDENNQKIQGVQIQESTSWNEYTFFNLTAGSKYNIAITAVSGGKRSFSVYTNGSTVPSPVKDIGISTKANSLLISWSHGSGNVERYRLMLMDKGILVHGGVVDKHATSYAFHGLTPGYLYNLTVMTEAAGLQNYRWKLVRTAPMEVSNLKVTNDGSLTSLKVKWQRPPGNVDSYNITLSHKGTIKESRVLAPWITETHFKELVPGRLYQVTVSCVSGELSAQKMAVGRTFPDKVANLEANNNGRMRSLVVSWSPPAGDWEQYRILLFNDSVVLLNITVGKEETQYVMDDTGLVPGRQYEVEVIVESGNLKNSERCQGRTVPLAVLQLRVKHANETSLSIMWQTPVAEWEKYIISLADRDLLLIHKSLSKDAKEFTFTDLVPGRKYMATVTSISGDLKNSSSVKGRTVPAQVTDLHVANQGMTSSLFTNWTQAQGDVEFYQVLLIHENVVIKNESISSETSRYSFHSLKSGSLYSVVVTTVSGGISSRQVVVEGRTVPSSVSGVTVNNSGRNDYLSVSWLLAPGDVDNYEVTLSHDGKVVQSLVIAKSVRECSFSSLTPGRLYTVTITTRSGKYENHSFSQERTVPDKVQGVSVSNSARSDYLRVSWVHATGDFDHYEVTIKNKNNFIQTKSIPKSENECVFVQLVPGRLYSVTVTTKSGQYEANEQGNGRTIPEPVKDLTLRNRSTEDLHVTWSGANGDVDQYEIQLLFNDMKVFPPFHLVNTATEYRFTSLTPGRQYKILVLTISGDVQQSAFIEGFTVPSAVKNIHISPNGATDSLTVNWTPGGGDVDSYTVSAFRHSQKVDSQTIPKHVFEHTFHRLEAGEQYQIMIASVSGSLKNQINVVGRTVPASVQGVIADNAYSSYSLIVSWQKAAGVAERYDILLLTENGILLRNTSEPATTKQHKFEDLTPGKKYKIQILTVSGGLFSKEAQTEGRTVPAAVTDLRITENSTRHLSFRWTASEGELSWYNIFLYNPDGNLQERAQVDPLVQSFSFQNLLQGRMYKMVIVTHSGELSNESFIFGRTVPASVSHLRGSNRNTTDSLWFNWSPASGDFDFYELILYNPNGTKKENWKDKDLTEWRFQGLVPGRKYVLWVVTHSGDLSNKVTAESRTAPSPPSLMSFADIANTSLAITWKGPPDWTDYNDFELQWLPRDALTVFNPYNNRKSEGRIVYGLRPGRSYQFNVKTVSGDSWKTYSKPIFGSVRTKPDKIQNLHCRPQNSTAIACSWIPPDSDFDGYSIECRKMDTQEVEFSRKLEKEKSLLNIMMLVPHKRYLVSIKVQSAGMTSEVVEDSTITMIDRPPPPPPHIRVNEKDVLISKSSINFTVNCSWFSDTNGAVKYFTVVVREADGSDELKPEQQHPLPSYLEYRHNASIRVYQTNYFASKCAENPNSNSKSFNIKLGAEMESLGGKCDPTQQKFCDGPLKPHTAYRISIRAFTQLFDEDLKEFTKPLYSDTFFSLPITTESEPLFGAIEGVSAGLFLIGMLVAVVALLICRQKVSHGRERPSARLSIRRDRPLSVHLNLGQKGNRKTSCPIKINQFEGHFMKLQADSNYLLSKEYEELKDVGRNQSCDIALLPENRGKNRYNNILPYDATRVKLSNVDDDPCSDYINASYIPGNNFRREYIVTQGPLPGTKDDFWKMVWEQNVHNIVMVTQCVEKGRVKCDHYWPADQDSLYYGDLILQMLSESVLPEWTIREFKICGEEQLDAHRLIRHFHYTVWPDHGVPETTQSLIQFVRTVRDYINRSPGAGPTVVHCSAGVGRTGTFIALDRILQQLDSKDSVDIYGAVHDLRLHRVHMVQTECQYVYLHQCVRDVLRARKLRSEQENPLFPIYENVNPEYHRDPVYSRH
Km [1]: 86 µM | Km [2]: 1340 µM
